This note sets out measurements from article PMC8219681, “Inhibition of MRN activity by a telomere protein motif” (Nature Communications, 2021).

Data set [1] addresses T1, MBP-Rif2-min (S. cerevisiae Rif2 F8E P10N), Q06208.
T1 chain: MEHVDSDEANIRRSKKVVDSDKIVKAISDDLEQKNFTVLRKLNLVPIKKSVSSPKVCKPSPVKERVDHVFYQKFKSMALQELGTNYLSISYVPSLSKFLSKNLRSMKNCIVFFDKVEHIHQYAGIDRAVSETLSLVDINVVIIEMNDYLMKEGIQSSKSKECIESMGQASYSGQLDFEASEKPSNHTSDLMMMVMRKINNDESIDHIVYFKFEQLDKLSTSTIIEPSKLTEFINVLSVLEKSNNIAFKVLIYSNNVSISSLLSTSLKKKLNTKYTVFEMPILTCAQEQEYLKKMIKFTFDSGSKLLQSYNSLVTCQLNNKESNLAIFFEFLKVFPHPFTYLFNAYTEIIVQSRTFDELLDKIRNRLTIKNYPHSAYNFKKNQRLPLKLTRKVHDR
In words: pull-down (amylose-immobilized MBP-Rif2-min bait, Western blot with anti-Rad50 antibody, quantified). The following applies: chain shown with the change; three independent blots; mean with SEM; parent: est. 100; read off a plot. On the technique in general: A western blot detects proteins with antibodies after separation by electrophoresis.

A further data set has as its target T2, Rif2-min (Saccharomyces cerevisiae, UniProt Q06208 1-395, F8E;P10N).
T2 sequence: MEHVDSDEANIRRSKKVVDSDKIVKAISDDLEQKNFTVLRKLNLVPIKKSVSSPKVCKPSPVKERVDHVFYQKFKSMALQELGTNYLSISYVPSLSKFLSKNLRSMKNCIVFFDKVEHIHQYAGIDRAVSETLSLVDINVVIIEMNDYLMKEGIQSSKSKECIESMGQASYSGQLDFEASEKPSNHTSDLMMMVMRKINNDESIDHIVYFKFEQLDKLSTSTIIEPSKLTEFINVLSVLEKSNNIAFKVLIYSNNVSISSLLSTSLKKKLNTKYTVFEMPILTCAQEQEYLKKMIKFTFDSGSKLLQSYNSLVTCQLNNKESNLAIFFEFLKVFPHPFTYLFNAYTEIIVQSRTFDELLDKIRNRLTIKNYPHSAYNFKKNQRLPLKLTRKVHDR
In words: EMSA; 5 mM Mg2+, 1 mM Mn2+, 1 mM ATP; 25 mM Tris-acetate pH 7.5, 1 mM DTT, 5 mM Mg acetate, 1 mM Mn acetate, 0.25 mg/ml BSA, 1 mM PEP, 1 mM ATP, 80 U/ml pyruvate kinase, 1 nM DNA, 30 C 30 min; 6% PAGE in TAE. The following applies: protein: recombinant; tags: C-terminal His (N-terminal MBP cleaved with PreScission); label: 32P; blunt.

The target in the next data set is T3, Rif2 (Saccharomyces cerevisiae, UniProt Q06208 1-395).
T3 sequence: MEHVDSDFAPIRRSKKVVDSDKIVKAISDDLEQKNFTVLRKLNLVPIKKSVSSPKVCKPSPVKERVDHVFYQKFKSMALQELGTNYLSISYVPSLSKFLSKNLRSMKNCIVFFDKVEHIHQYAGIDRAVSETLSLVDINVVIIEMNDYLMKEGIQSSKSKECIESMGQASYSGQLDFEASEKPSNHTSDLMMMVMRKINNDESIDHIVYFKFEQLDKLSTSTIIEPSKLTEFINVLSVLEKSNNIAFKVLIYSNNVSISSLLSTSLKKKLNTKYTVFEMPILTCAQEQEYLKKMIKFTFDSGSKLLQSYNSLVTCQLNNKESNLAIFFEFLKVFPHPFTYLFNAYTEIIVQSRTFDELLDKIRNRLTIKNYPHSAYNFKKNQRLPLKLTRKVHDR
The data set is described as above. To be noted: protein: recombinant; tags: C-terminal His (N-terminal MBP cleaved with PreScission); label: 32P; blunt.

B1: m3; m1 Rad50:K81I; Rif2:F8E; Rif2:P10N (protein)
chain: MSAIYKLSIQGIRSFDSNDRETIEFGKPLTLIVGMNGSGKTTIIECLKYATTGDLPPNSKGGVFIHDPKITGEKDIRAQVILAFTSANGLNMIVTRNIQLLMKKTTTTFKTLEGQLVAINNSGDRSTLSTRSLELDAQVPLYLGVPKAILEYVIFCHQEDSLWPLSEPSNLKKKFDEIFQAMKFTKALDNLKSIKKDMSVDIKLLKQSVEHLKLDKDRSKAMKLNIHQLQTKIDQYNEEVSEIESQLNEITEKSDKLFKSNQDFQKILSKVENLKNTKLSISDQVKRLSNSIDILDLSKPDLQNLLANFSKVLMDKNNQLRDLETDISSLKDRQSSLQSLSNSLIRRQGELEAGKETYEKNRNHLSSLKEAFQHKFQGLSNIENSDMAQVNHEMSQFKAFISQDLTDTIDQFAKDIQLKETNLSDLIKSITVDSQNLEYNKKDRSKLIHDSEELAEKLKSFKSLSTQDSLNHELENLKTYKEKLQSWESENIIPKLNQKIEEKNNEMIILENQIEKFQDRIMKTNQQADLYAKLGLIKKSINTKLDELQKITEKLQNDSRIRQVFPLTQEFQRADLEMDFQKLFINMQKNIAINNKKMHELDRRYTNALYNLNTIEKDLQDNQKSKEKVIQLLSENLPEDCTIDEYNDVLEETELSYKTALENLKMHQTTLEFNRKALEIAERDSCCYLCSRKFENESFKSKLLQELKTKTDANFEKTLKDTVQNEKEYLHSLRLLEKHIITLNSINEKIDNSQKCLEKAKEETKTSKSKLDELEVDSTKLKDEKELAESEIRPLIEKFTYLEKELKDLENSSKTISEELSIYNTSEDGIQTVDELRDQQRKMNDSLRELRKTISDLQMEKDEKVRENSRMINLIKEKELTVSEIESSLTQKQNIDDSIRSKRENINDIDSRVKELEARIISLKNKKDEAQSVLDKVKNERDIQVRNKQKTVADINRLIDRFQTIYNEVVDFEAKGFDELQTTIKELELNKAQMLELKEQLDLKSNEVNEEKRKLADSNNEEKNLKQNLELIELKSQLQHIESEISRLDVQNAEAERDKYQEESLRLRTRFEKLSSENAGKLGEMKQLQNQIDSLTHQLRTDYKDIEKNYHKEWVELQTRSFVTDDIDVYSKALDSAIMKYHGLKMQDINRIIDELWKRTYSGTDIDTIKIRSDEVSSTVKGKSYNYRVVMYKQDVELDMRGRCSAGQKVLASIIIRLALSETFGANCGVIALDEPTTNLDEENIESLAKSLHNIINMRRHQKNFQLIVITHDEKFLGHMNAAAFTDHFFKVKRDDRQKSQIEWVDINRVTY
Take B1: in data set [1], the percent of parent (Relative value) came to 14.

B2: PC1253C/PC1253B 50 bp dsDNA (dsDNA)
DNA 1: AACGTCATAGACGATTACATTGCTAGGACATCTTTGCCCACGTTGACCCA
DNA 2: TGGGTCAACGTGGGCAAAGATGTCCTAGCAATGTAATCGTCTATGACGTT
modifications: 3'-terminal biotin (stated for the nuclease substrate; strand(s) ambiguous; streptavidin not mentioned for EMSA)
Take B2: the binding result with Rif2-min and in the data set with Rif2 was “binds” in each case.
